This is an account of results in US20090274695A1 (published 2009).

Test [1] has as its target T1, Mouse uPAR, full-length, on transfected COS cells (mouse, UniProt P35456 24-298).
T1 construct: whole, on cells; also called murine uPAR
T1 sequence (looked up): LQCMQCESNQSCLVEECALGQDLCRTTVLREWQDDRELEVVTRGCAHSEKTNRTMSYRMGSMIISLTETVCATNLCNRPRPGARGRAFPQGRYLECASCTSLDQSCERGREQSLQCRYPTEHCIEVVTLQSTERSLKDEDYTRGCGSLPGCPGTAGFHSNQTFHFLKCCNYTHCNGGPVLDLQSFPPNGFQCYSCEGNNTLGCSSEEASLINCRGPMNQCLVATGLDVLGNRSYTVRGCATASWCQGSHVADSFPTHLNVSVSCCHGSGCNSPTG
Put plainly: AP fusion protein on COS cells transfected with murine uPAR, colorimetric AP assay; bar pattern assigned by bar order and by paragraph 233.

The target of test [2] is T2, unnamed immobilized partner drawn in Figure 10B.
T2 construct: It is drawn as a chain of three ovals held by a small tag on a cross-shaped capture molecule on the surface; This would fit biotinylated uPAR on avidin, but it carries no label, so it is not assigned to m7 or m13
Put plainly: BIAcore, two-step binding scheme drawn beside the numbers; immobilized partner not named. Background: In SPR one partner is held on a chip, and binding of the other changes the refractive index at the surface.

In test [3] the target is T2, unnamed immobilized partner drawn in …. Put plainly: BIAcore, two-step binding scheme. The line is printed 'ka1' a second time, but the unit 1/s and the scheme's kd1 mark it as the dissociation rate of the first step. Immobilized partner not named.
Test [4] concerns the target T3, Human uPAR (urokinase-type plasminogen activator receptor), full-length, on transfected COS or CHO cells (human, UniProt Q03405 23-305).
T3 construct: whole, on cells; GPI-anchored on the cell surface; also called uPAR-transfected cells
Nature of the test: homologous competition of purified CYTL1 against CYTL1-AP on uPAR-transfected cells, three independent experiments.

In test [5] the target is T4, Recombinant human uPAR (R&D Systems), immobilized on a CM5 sensor chip (human, UniProt Q03405 23-303, limits assumed).
T4 construct: Bought protein, amine-coupled to the chip; also called immobilized uPAR
Nature of the test: SPR equilibrium binding, Langmuir single-site fit, three sets of readings; SPR equilibrium binding, uPAR immobilized on the chip.

T3 sequence (Q03405 23-305): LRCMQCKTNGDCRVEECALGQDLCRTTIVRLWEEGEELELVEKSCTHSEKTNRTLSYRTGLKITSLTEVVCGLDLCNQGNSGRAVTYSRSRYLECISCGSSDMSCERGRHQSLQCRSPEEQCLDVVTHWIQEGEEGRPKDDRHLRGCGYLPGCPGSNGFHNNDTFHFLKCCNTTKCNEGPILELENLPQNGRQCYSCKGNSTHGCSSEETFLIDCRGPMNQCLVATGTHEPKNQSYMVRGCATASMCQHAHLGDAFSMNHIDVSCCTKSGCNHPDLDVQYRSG
T4 sequence (Q03405 23-303 limits assumed): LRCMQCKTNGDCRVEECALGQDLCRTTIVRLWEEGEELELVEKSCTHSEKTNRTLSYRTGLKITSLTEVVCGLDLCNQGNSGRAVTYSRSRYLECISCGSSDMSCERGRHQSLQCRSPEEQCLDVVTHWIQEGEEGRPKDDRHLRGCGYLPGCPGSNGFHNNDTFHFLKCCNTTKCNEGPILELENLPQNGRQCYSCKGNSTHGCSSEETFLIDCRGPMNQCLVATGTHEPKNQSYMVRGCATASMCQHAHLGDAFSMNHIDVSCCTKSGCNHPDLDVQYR

B1: Human CYTL1-alkaline phosphatase fusion protein (other)
chain: TPPTCYSRMRALSQEITRDFNLLQVSEPSEPCVRYLPRLYLDIHNYCVLDKLRDFVASPPCWKVAQVDSLKDKARKLYTIMNSFCRRDLVFLLDDCNALEYPIPVTTVLPDRQR
notes: Expressed in 293 cells from a pRK5-based vector and used as cell-conditioned medium; also called CYTL1-AP; human CYTL1-AP; not shown: Human placental alkaline phosphatase (AP)
B1: the binding result in test [1] is on record as “no binding”. This molecule gave a kon in test [2] of 570000 M⁻¹ s⁻¹. Besides, the koff in test [3] amounted to 0.018 s⁻¹.

B2: Purified human CYTL1 (cytokine-like 1), expressed in insect cells, poly-histidine tag cleaved (ligand)
chain: B1 chain
notes: also called purified CYTL1; PRO4425
With B2, the Kd in test [4] is roughly 1.5 µM; in test [5], 1.1 µM.

One may read the kon as the second-order rate constant of association. Usually koff stands for the rate constant with which the complex falls apart. Low values mean a long-lived complex, high ones a short-lived complex. The term Kd denotes the constant that tells how readily two partners part at equilibrium.
